{"source": "patent US10509035B2", "about": "“Antibodies, antibody drug conjugates and methods of use” (GAMAMABS PHARMA, priority 2015, dated 2019)", "molecules": {"B1": {"name": "K4D24: 3C23K variant; VH H-Q1R (SEQ ID NO: 22), VL SEQ ID NO: 36 (antibody, V domains shown)", "VH": "RVRLVQSGAEVKKPGASVKVSCKASGYTFTSYHIHWVRQAPGQRLEWMGWIYPGDDSTKYSQKFQGRVTITRDTSASTAYMELSSLRSEDTAVYYCTRGDRFAYWGQGTLVTVSS", "VL": "DIQMTQSPSTLSASVGDRVTITCRASSSVRYIAWYQQKPGKAPKLLTYPTSSLKSGVPSRFSGSGSGTEFTLTISSLQPDDFATYYCLQWSSYPWTFGGGTKVEIK", "modifications": "K4D-24/6C59; 3C23K"}, "B2": {"name": "6C59: 3C23K variant; VH H-Q1R (SEQ ID NO: 22), VL L-S27P, L-S28P (SEQ ID NO: 40) (antibody, V domains shown)", "VH": "B1 VH", "VL": "B1 VL with S27P, S28P", "modifications": "K4D-24/6C59; LS27P, L-S28P"}}, "key": {"[1]": {"target": "T1, extracellular domain of AMHR-II receptor (AMHR-II-ECD-Fc) (Homo sapiens, UniProt Q16671)", "T1 construct": "Fc (C); purchased R&D System", "T1 sequence (Q16671 18-149 limits assumed)": "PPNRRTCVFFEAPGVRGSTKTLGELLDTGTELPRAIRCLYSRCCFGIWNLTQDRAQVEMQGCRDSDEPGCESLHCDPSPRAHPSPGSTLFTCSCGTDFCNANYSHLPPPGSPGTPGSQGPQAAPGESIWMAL", "assay": "ELISA binding to the extracellular domain of AMHR-II receptor", "protocol": "The binding capacity of the anti-AMHR-II 3C23K antibodies was evaluated by ELISA. ELISA plates (96 wells, Maxisorp, NUnc) were coated overnight at +4° C. with 50 ng per well of AMHR-II-ECD-Fc (R&D System). Coated ELISA plates were blocked with PBS-BSA 4% for 2 hours at 37° C. and washed three times with PBS-Tween20 0.05%. […] The bound anti-AMHR-II antibodies were detected by adding HRP-conjugated F(ab′)2 goat anti-human F(ab′2) fragment specific (Interchim) diluted at 1:10000 and incubated for one hour at 37° C. Revelation was done with TMB (Sigma) and the reaction was stopped by adding H2SO4 1N (v:v). Absorbances were measured at 450 nm and binding data curves were analysis using GraphPad Prism.\nThe binding capacity of the anti-AMHR-II variants K4D24 and 6C59 antibodies was assayed by ELISA assay as the same manner as in example 3 with only minor changes. ELISA plates (96 wells, Maxisorp, NUnc) were coated overnight at +4° C. with 50 ng per well or 10 ng per well of AMHR-II-ECD-Fc (R&D System). K4D24, 6C59 and 3C23K were serially diluted from 4 μg/ml to 1 ng/ml. Absorbances were measured at 450 nm and binding data curves were analysis using four-parameter nonlinear regression fit from GraphPad Prism. FIGS. 15A-15B show the results."}, "[2]": {"target": "T2, AMHR2 receptor expressed at the surface membrane of the COV434 WT cell line (Homo sapiens, UniProt Q16671)", "T2 construct": "assayed on the low expressing AMHR-II COV434 WT cell line; endogenous in cells; host or cells: COV434 WT", "T2 sequence (Q16671 18-573)": "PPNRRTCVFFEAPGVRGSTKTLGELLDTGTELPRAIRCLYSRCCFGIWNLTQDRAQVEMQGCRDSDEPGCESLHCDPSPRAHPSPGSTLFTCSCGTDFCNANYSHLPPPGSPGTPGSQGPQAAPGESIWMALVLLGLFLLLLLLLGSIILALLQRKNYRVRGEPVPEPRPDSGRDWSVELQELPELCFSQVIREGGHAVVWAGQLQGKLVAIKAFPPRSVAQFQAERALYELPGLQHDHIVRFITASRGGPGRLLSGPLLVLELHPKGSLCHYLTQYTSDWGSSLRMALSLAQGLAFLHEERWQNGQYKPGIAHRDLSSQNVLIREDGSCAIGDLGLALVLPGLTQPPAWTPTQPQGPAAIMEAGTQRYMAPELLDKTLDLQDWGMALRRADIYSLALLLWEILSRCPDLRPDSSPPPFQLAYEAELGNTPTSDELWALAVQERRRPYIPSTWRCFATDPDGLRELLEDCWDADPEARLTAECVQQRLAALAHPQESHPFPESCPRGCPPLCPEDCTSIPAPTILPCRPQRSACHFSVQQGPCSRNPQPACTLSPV", "assay": "FACS binding to the low expressing COV434 WT cell line", "conditions": "variants 25, 10, 5 μg/ml; 3C23K 50, 25, 10 μg/ml", "protocol": "The COV434 AMHR-II transfected and the COV434 WT cell lines were maintained in DMEM/GlutaMax (Gibco) supplemented with 10% FBS, penicillin 100 U/ml and Streptomycin 100 μg/ml. Geneticin at 666 μg/ml was added for the COV434 AMHR-II transfected cell line. […] After washes, Phycoerythrin-conjugated anti-human IgG antibody (1:200, Beckman-Coulter) was added for 1 hour at room temperature. FACS analysis of the resuspended cells was done on a BD Accuri™ C6 flow cytometer (BD Bioscience).\nThe binding capacity of the anti-AMHR-II antibody variants K4D24 and 6C59 to the AMHR-II expressing cell lines was evaluated by flow cytometry analysis in the same manner as example 4. FACS analysis with COV434-AMHR-II transfected cell line is described in FIG. 16. The Kapparent of the K4D24 and 6C59 variants were improved by a factor of 20 and 40 fold respectively as compared to the 3C23K (0.098 μg/ml and 0.05 μg/ml versus 2.2 μg/ml). The binding capacity of these variants was also assayed on the low expressing AMHR-II COV434 WT cell line. In this setting the binding was evaluated with three concentrations of variants (25, 10 and 5 μg/ml) and three concentrations of 3C23K (50, 25 and 10 μg/ml)."}, "[3]": {"system": "COV434 AMHR-II transfected cell line", "assay": "Antibody internalization (flow cytometry and immunofluorescence imaging)", "type": "cell-based", "conditions": "flow cytometry; K4D24 0.5 μg/ml, 6C59 0.3 μg/ml, 3C23K 10 μg/ml", "protocol": "Antibody mediated internalization were assessed by flow cytometry analysis and by immunofluorescence imaging. Flow cytometry experiments was done on the two expressing AMHR-II cell lines: COV434 WT with low level of expression and COV434-AMHR-II transfected cell line with high level of expression. Briefly, 5×10^5 cells were incubated with 3C23K at 10 μg/ml and incubated 30 min at 4° C. After washes, DMEM/GlutaMax (Gibco) medium, cold or pre-warmed at 37° C., was added and incubated at 4° C. or 37° C. at different time points (15 min, 30 min and 60 min). Phycoerythrin-conjugated anti-human IgG antibody (1:200, Beckman-Coulter) was added for 30 min at 4° C. FACS analysis of the resuspended cells was done on a BD Accuri™ C6 flow cytometer (BD Bioscience). As depicted in FIGS. 9A and 9B, the internalization of the 3C23K observed at 37° C. is fast whatever the level of AMHR-II expression. For immunofluorescence imaging experiments, COV434 AMHR-II transfected cell line were grown on poly-D lysine coated glass coverslips overnight at 37° C. at a density of 75000 cells/cm^2. Cells were incubated with 3C23K directly labelled with Alexa Fluor 488 for 1H30 at 4° C. to carry out surface labelling. Cell surface bound antibodies were allowed to internalize by incubating cells in prewarmed medium at 37° C. At appropriate time points, coverslips were removed and cells were washed in PBS, then fixed in formaline (4%, 30 min at room temperature) and permeabilized (Triton X-100 0.5%, 5 min at room temperature). Nuclei were stained with DAPI (4′,6-diamidino-2-phenylindole) and coverslips were mounted on microscope slides and imaged with Leica DM5000 microscope (Leica Microsystems). Internalization was quantified by counting the number of visible vesicles in cell section at different incubation time using Image J software.\nThe internalization capacity of the K4D24 and 6C59 variants was assayed by fluorescence cytometry analysis in the same manner as in Example 8 except for the concentrations used. Due to their strong binding, K4D24 and 6C59 were used at 0.5 μg/ml and 0.3 μg/ml respectively whereas the 3C23K was used at 10 μg/ml."}, "[4]": {"conditions": "coating 10 ng/well AMHR-II recombinant protein"}, "[5]": {"conditions": "coating 50 ng/well AMHR-II recombinant protein"}}, "note": "Residue numbers refer to the chain shown, from its start. In names and notes the source's numbering stands. Entries after “also recorded” stand apart in the source; their conditions may differ."}
{"molecule": "B1", "values": [{"measurement": "binding compared with 3C23K", "setting": "[1]; [4]", "result": "Improved binding; also recorded: stronger"}, {"measurement": "binding compared with 3C23K", "setting": "[1]; [5]", "result": "no major difference of binding"}, {"measurement": "binding compared to 3C23K on the COV434 WT cell line", "setting": "[2]", "result": "strongly improve the level of detection; also recorded: stronger binding"}, {"measurement": "internalization compared with 3C23K", "setting": "[3]", "result": "retain the same internalization potential"}]}
{"molecule": "B2", "values": [{"measurement": "binding compared with 3C23K", "setting": "[1]; [4]", "result": "Improved binding; also recorded: stronger"}, {"measurement": "binding compared with 3C23K", "setting": "[1]; [5]", "result": "no major difference of binding"}, {"measurement": "binding compared to 3C23K on the COV434 WT cell line", "setting": "[2]", "result": "strongly improve the level of detection; also recorded: stronger binding"}, {"measurement": "internalization compared with 3C23K", "setting": "[3]", "result": "retain the same internalization potential"}]}
